The source of these data is patent US20230414780A1 (VECT HORUS, published 2023).

Assay [1] has as its target T1, mouse transferrin receptor (mTfR) fused to EGFP, on CHO cells (mouse, UniProt Q62351 1-763).
T1 construct: whole, on cells; also called mouse TfR; CHO-mTfR-EGFP; not shown: EGFP
The experiment in a line: flow cytometry, CHO cells. The method, then: The binding properties of VHHs with affinity for the TfR from different species (i.e., human (h), mouse (m) and rhesus monkey (rh)) were tested using flow cytometry, and apparent affinities (Kd app) were determined. All experiments were performed in 96 well plates using 2×10⁵ cells/well, at 4° C. with shaking. CHO cell lines expressing the hTfR, mTfR or rhTfR fused to EGFP were saturated with PBS/BSA 2% solution during 30 min to avoid nonspecific binding, followed by incubation with purified VHHs at increasing concentrations for 1 hr. After one wash in PBS/BSA 2%, cells were incubated for 1 hr with an anti-6His tag antibody (mouse), washed twice with PBS/BSA 2%, and incubated for 1 hr with an Alexa647-conjugated anti-mouse secondary antibody. After two last washes in PBS/BSA 2%, cells were fixed by incubation for 15 min with PBS/PFA 2%, washed once with PBS and finally resuspended in PBS. Fluorescence levels were assessed using an Attune NxT flow cytometer (Thermo Fisher Scientific). Experimental data were fitted with GraphPad Prism® software using a nonlinear fit to determine the apparent Kd constants. […] Table 5 hereafter summarizes apparent Kd obtained for the tested VHHs.
On the technique in general: In flow cytometry, cells or beads pass a laser one at a time.

The target of assay [2] is T2, human transferrin receptor (hTfR) fused to EGFP, on CHO cells (human, UniProt P02786 1-760).
T2 construct: whole, on cells; also called human TfR; CHO-hTfR-EGFP; not shown: EGFP from pEGFP-C1 vector, fused to the N-terminal (intracellular) end of hTfR
T2 sequence (P02786 whole entry, the tested form may be a part): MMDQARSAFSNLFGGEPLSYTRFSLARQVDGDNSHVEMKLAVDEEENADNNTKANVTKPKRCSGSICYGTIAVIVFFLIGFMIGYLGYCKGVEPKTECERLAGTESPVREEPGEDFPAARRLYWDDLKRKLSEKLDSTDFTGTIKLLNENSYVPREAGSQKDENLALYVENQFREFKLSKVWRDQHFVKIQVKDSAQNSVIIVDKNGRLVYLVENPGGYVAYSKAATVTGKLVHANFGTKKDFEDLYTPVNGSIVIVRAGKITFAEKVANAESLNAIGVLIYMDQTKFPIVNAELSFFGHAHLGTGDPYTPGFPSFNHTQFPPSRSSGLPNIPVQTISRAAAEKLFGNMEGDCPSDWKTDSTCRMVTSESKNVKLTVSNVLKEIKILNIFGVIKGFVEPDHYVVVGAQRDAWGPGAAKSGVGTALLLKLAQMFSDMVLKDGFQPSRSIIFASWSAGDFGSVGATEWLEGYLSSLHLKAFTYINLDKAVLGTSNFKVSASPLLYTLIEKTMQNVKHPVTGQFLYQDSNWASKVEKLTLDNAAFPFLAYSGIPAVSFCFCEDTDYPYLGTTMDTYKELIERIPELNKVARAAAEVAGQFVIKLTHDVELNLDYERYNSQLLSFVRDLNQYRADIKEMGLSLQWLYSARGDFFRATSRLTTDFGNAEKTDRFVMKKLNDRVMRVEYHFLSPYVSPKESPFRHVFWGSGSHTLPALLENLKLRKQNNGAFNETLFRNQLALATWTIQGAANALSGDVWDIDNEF
The experiment in a line: apparent Kd, flow cytometry, CHO cells. The procedure, abridged: (§1)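 CHO cells expressing TfR-EGFP fusions, blocked in PBS/BSA 2%, then incubated with increasing VHH concentrations for 1 hr at 4° C. Bound VHH detected via anti-6His antibody and Alexa647 secondary, cells PFA-fixed, read by flow cytometry. Apparent Kd from nonlinear fit.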

Assay [3] concerns the target T3, human TfR ectodomain fused to a mouse IgG1 Fc fragment (human, UniProt P02786 89-760).
T3 construct: extracellular domain; ectodomain fused to the N-terminal end of the Fc, made in-house; not shown: mouse IgG1 Fc fragment
Put plainly: SPR, kinetic. In a few lines: (§2)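 TfR–mouse Fc fusions, produced in-house, captured on HC 1500M or CM5 chips either directly or via immobilized anti-mouse IgG. VHHs injected in single-cycle or multiple-cycle kinetic mode on Biacore T200.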

Assay [4] addresses T3, human TfR ectodomain fused to a mouse …. Put plainly: SPR, at equilibrium. As to the method:
(§3) Binding properties of some VHHs were also evaluated using Surface Plasmon Resonance (SPR) experiments. The human, mouse and rhesus monkey TfR (having respectively GeneBank number NM_003234.2, NM_011638, NC_041755.1) ectodomains were fused to the N-terminal end of a mouse IgG1 Fc fragment and the recombinant proteins were produced and purified in-house. Interaction of VHHs with the receptors was tested using a Biacore T200 (GE Healthcare). Receptors were immobilized on an HC 1500M or a CM5 sensor chip (Xantec) either directly or on an anti-mouse IgG previously immobilized. VHHs were injected over flowcell by using the single-cycle kinetic or the multiple-cycle kinetic methods.

In assay [5] the target is T4, rhesus monkey transferrin receptor (rhTfR) fused to EGFP, on CHO cells (rhesus monkey).
T4 construct: whole, on cells; also called rhesus monkey TfR
The experiment in a line: apparent Kd, flow cytometry, CHO cells. The procedure, abridged:
as §1

The target of assay [6] is T5, rhesus monkey TfR ectodomain fused to a mouse IgG1 Fc fragment (rhesus monkey, UniProt I0FKY7 89-760).
T5 construct: extracellular domain; not shown: mouse IgG1 Fc fragment
The experiment in a line: SPR, at equilibrium. As to the method:
as §3

Assay [7] has as its target T1, mouse transferrin receptor (mTfR) fused …. The experiment in a line: apparent Kd, flow cytometry, CHO cells. In a few lines:
as §1

Assay [8] has as its target T5, rhesus monkey TfR ectodomain fused to a …. Put plainly: SPR, kinetic. In a few lines:
as §2
For orientation: SPR reads the build-up and loss of mass on a sensor chip optically.

T3 sequence (P02786 89-760): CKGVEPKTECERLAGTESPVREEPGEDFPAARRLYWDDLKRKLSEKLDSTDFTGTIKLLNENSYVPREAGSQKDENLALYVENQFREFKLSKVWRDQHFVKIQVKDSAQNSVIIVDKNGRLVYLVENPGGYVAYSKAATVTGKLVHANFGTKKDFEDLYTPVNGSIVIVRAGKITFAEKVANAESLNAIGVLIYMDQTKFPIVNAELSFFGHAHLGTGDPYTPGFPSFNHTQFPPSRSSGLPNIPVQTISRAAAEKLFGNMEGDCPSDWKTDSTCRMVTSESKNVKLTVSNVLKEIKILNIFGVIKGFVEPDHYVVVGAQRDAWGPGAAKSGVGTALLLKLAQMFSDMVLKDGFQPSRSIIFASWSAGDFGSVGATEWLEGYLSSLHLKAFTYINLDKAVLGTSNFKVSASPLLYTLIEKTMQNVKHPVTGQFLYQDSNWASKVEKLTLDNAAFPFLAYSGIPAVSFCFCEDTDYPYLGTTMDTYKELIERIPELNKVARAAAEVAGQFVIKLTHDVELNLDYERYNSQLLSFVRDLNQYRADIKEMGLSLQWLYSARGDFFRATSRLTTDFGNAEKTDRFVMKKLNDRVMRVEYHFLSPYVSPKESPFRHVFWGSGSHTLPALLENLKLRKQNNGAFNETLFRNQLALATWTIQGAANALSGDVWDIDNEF
T1 sequence (Q62351 whole entry, the tested form may be a part): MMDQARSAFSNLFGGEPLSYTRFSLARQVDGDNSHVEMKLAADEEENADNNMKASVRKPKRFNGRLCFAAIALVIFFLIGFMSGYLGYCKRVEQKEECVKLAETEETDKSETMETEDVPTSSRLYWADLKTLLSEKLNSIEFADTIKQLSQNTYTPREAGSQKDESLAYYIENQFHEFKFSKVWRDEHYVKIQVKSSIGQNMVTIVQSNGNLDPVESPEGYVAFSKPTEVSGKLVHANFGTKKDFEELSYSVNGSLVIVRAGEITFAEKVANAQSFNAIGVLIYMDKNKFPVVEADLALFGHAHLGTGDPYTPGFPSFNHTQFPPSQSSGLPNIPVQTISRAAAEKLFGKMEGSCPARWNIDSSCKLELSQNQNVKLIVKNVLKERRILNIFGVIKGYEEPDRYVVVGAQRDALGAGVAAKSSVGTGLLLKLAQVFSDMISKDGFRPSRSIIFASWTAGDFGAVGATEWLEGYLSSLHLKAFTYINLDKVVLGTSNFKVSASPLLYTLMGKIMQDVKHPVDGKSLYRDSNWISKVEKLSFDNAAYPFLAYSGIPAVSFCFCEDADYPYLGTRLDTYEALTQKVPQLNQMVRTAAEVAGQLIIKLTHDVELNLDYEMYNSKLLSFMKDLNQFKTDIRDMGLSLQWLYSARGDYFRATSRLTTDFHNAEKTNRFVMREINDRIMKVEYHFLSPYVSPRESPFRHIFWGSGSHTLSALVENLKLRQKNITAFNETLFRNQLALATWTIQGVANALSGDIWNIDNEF

B1: C5^neg (control) (VHH)
VHH: EVQLVESGGGVVQPGGSLKLSCVASGTDFSINFIRWYRQAPGKQREFVAGFTATGNTNYADSMKGRFTISRDNTKNAVYLQIDSLKPEDTAVYYCAMADKWGQGTQVTVSS
notes: negative control of C5 with 2 alanines in CDR3
Consider B1, for which, in assay [1], the binding result was “no binding”.

B2: F2a (VHH)
VHH: EVQLVESGGGLVQPGESLRLSCTASESISIYGVGWYRQAPGEQRVLVAHLKRNGLTEYKDSVKGRFTISRDNARNTIYLEMKNLKPEDTAIYYCNTALGSVLPWGRGTQVTVSS
The koff is the first-order rate constant of dissociation. Usually kon stands for the rate constant with which the complex forms. Regarding B2, in assay [2], the Kd worked out at 2.9 nM. Besides, the binding result in assay [1] is listed as “no binding”. In assay [3], this molecule showed a Kd of 0.545 nM, a dissociation rate constant (koff) of 0.000752 s⁻¹ and an association rate constant (kon) of 1.39e+06 M⁻¹ s⁻¹.

B3: B7 (VHH)
VHH: QVQLVQSGGGLVQAGGSLTLSCTASGRPLSDYPMGWFRRAPEKERELVASISRTGDGTYYADGMRGRFTISRDNSENTVSLQMNNLKPEDTAVYYCGAGINPTKYWGQGTQVTVSS
As for B3, the Kd in assay [2] was 1.9 nM. Also, in assay [1], the binding result is on record as “no binding”. In assay [3], the Kd is 0.652 nM, the koff was 0.000758 s⁻¹ and the kon is 1.16e+06 M⁻¹ s⁻¹.

B4: C12b (VHH)
VHH: QVQLVQSGGGLVQPGGSLRLSCAASGFTFSAYAMSWVRQAPGKGRELVASISRTGDGTYYADGMKGRFTISRDNAENTVSLQINSLKPEDTAIYYCGAGINPTKYWGQGTQVTVSS
On to B4, for which the Kd in assay [4] was 2440 nM; in assay [2], 630 nM. Moreover, in assay [1], the binding result is reported as “no binding”.

B5: C3 (VHH)
VHH: EVQLVQSGGGLVQAGGSLRLSCAASGRDFSDTSMAWHRQAPGKERLWVAGIRSGSTSTSYADSVKGRFTISRDDAKNTVYLQMDNLTPEDTAVYFCYSKGYWGQGTQVTVSS
B5: in assay [5], the Kd is 4230 nM. Besides, in assay [1], the binding result is reported as “no binding”. In assay [3], this molecule showed a Kd of 0.559 nM, a koff of 0.00249 s⁻¹ and a kon of 5.9e+06 M⁻¹ s⁻¹.

B6: VHH C (B6) (VHH)
VHH: EVQLVESGGGLVQPGGSLRLSCTASGGPIEQYPMGWFRRAPGKERELVASISRSGDGTYYAISSVKGRFTISRDNAENTVFLQMNSLKPDDTAVYYCGAGINPTKIWGQGTQVTVSS
As for B6, the Kd in assay [2] worked out at 2.1 nM. Besides, the binding result in assay [1] is recorded as “no binding”. In assay [3], this molecule had a Kd of 0.659 nM, an off-rate constant (koff) of 0.00121 s⁻¹ and a kon of 1.73e+06 M⁻¹ s⁻¹.

B7: B6^V4 (VHH)
VHH: EVQLVESGGGLVQPGGSLRLSCTASGGPIEQYPMGWFRRAPGKERESVASISRSGDGTYYAISSVKGRFTISRDNAENTVFLQMNSLKPDDTAVYYCGAGINPTKIWGQGTQVTVSS
In the case of B7, the Kd in assay [2] came to 5.9 nM. The binding result in assay [1] was “no binding”.

B8: E4 (VHH)
VHH: EVQLVESGGGLVQAGDSLRLSCTASGLPLSNYPMGWFRRAPGKERELIASISRTGDGTYYADSSVKGRFTISRDNAENTVSLQMNSLKPEDTAVYYCGAGINPTKYWGQGTQVTVSS
Consider B8, for which the Kd in assay [2] came to 3.1 nM. For the same molecule, in assay [1], the binding result was “no binding”. Moreover, in assay [3], the Kd is 1.25 nM, the koff worked out at 0.00189 s⁻¹ and the kon amounted to 1.51e+06 M⁻¹ s⁻¹.

B9: B6^V2 (VHH)
VHH: EVQLVESGGGLVQPGGSLRLSCTASGGPIEQYPMGWFRRAPGKERELVASFSRSGDGTYYAISSVKGRFTISRDNAENTVFLQMNSLKPDDTAVYYCGAGINPTKIWGQGTQVTVSS
On to B9, for which, in assay [2], the Kd stood at 643 nM. The binding result in assay [1] is reported as “no binding”.

B10: B6^V1 (VHH)
VHH: EVQLVESGGGLVQPGGSLRLSCTASGGPIEQYPMGWFRRAPGKERNLVASISRSGDGTYYAISSVKGRFTISRDNAENTVFLQMNSLKPDDTAVYYCGAGINPTKIWGQGTQVTVSS
Take B10: in assay [2], the Kd was found to be 2.3 nM. Besides, in assay [1], the binding result is given as “no binding”.

B11: B6^V3 (VHH)
VHH: EVQLVESGGGLVQPGGSLRLSCTASGGPIEQYPMGWFRRAPGKERELVASSSRSGDGTYYAISSVKGRFTISRDNAENTVFLQMNSLKPDDTAVYYCGAGINPTKIWGQGTQVTVSS
For the molecule B11, the Kd in assay [2] turned out to be 2.6 nM. Also, the binding result in assay [1] is on record as “no binding”.

B12: B8^V22 (VHH)
VHH: EVQLVESGGGVVQPGGSLRLSCAASGEIFSINQMRWYRQAPGKQREWVAGFTRDGSTNYPDSAKGRFTISRDNAKNTVYLQIDSLKPEDTAVYYCYMLDTWGQGTQVTVSS
On to B12, for which the Kd worked out at 480 nM in assay [4], 321 nM in assay [2], 971 nM in assay [5] and 475 nM in assay [3]. Also, the binding result in assay [1] is reported as “no binding”. Besides, in assay [3], the on-rate (kon) worked out at 698000 M⁻¹ s⁻¹.

B13: B8^V24 (VHH)
VHH: EVQLVESGGGVVQPGGSLRLSCAASGEIFSINFMEWYRQAPGKQREWVAGFTRDGSTNYPDSAKGRFTISRDNAKNTVYLQIDSLKPEDTAVYYCYMLDTWGQGTQVTVSS
Consider B13, for which, in assay [2], the Kd is 1010 nM. Also, the binding result in assay [1] was “no binding”.

B14: B8^V40 (VHH)
VHH: EVQLVESGGGVVQPGGSLRLSCAASGEIKSINFMRWYRQAPGKQREWVSGFTRDGSTNYPDSAKGRFTISRDNAKNTVYLQIDSLKPEDTAVYYCYMLDTWGQGTQVTVSS
As for B14, the Kd was determined as 42.5 nM in assay [4]; 39.8 nM in assay [6]; 1580 nM in assay [7]; 42 nM in assay [2]; 69 nM in assay [5]; 42.1 nM in assay [3]. In assay [8], this molecule gave a Kd of 34.8 nM. Moreover, the results for the koff in assay [3] and in assay [8] were 0.0283 s⁻¹ and 0.02 s⁻¹, respectively. In addition, the kon in assay [3] is 672000 M⁻¹ s⁻¹; in assay [8] it was 575000 M⁻¹ s⁻¹.

B15: E2 (VHH)
VHH: QVQLVQSGGGLVQAGGSLRLSCAASGSIFSDITLAWHRQIPGKEREWVAGISRSGSPSYRDSVKGRFTISRDNAKNTVFLQMNSLEPEDTGVYYCYSRGYWGQGTQVTVSS
Consider B15, for which the Kd in assay [2] amounted to 2.5 nM. The binding result in assay [1] is reported as “no binding”.

B16: C10a (VHH)
VHH: EVQLVESGGGLVQAGDSLRLSCAASGFASHLYAIGWFRQAPGKEREKVSCISSNDGSTYYADSVKGRFTISRDTVKDMVYLQMNSLKPEDTAVYYCATDLTVHCFMAEYDWWGQGTQVTVSS
Regarding B16, the Kd in assay [4] was 86.8 nM; in assay [6], 38.1 nM; in assay [2], 4.1 nM; in assay [5], 3.2 nM; in assay [3], 44.6 nM; in assay [8], 24.6 nM. Moreover, in assay [1], the binding result is listed as “no binding”. Moreover, the koff in assay [3] came to 0.00726 s⁻¹; in assay [8] it was 0.0178 s⁻¹. In addition, the results for the on-rate constant (kon) in assay [3] and in assay [8] were 188000 M⁻¹ s⁻¹ and 903000 M⁻¹ s⁻¹, respectively.

B17: H7 (VHH)
VHH: EVQLVESGGGLVQAGGSLRLSCTASGRPISDYPMGWFRRAPGKDRELVASISRTGDGTYYANSMKERFTISRDNAQNTVSLQISSLKPEDTAVYYCGAGINPTRYWGQGTQVTVSS
On to B17, for which the binding result in assay [1] is listed as “no binding”. Also, in assay [3], the Kd amounted to 1.3 nM, the off-rate constant (koff) was 0.00147 s⁻¹ and the kon was 1.13e+06 M⁻¹ s⁻¹.
